The target in experiment [1] is recombinant RIM1 PDZ-domain (rat RIM1 residues 596-704) (rat) (UniProt Q9JIR4). In words: ITC. (In ITC the heat of successive injections is recorded.)
Experiment [2] deals with T1, recombinant RIM1 PDZ-domain (rat RIM1 residues 596-704) (rat, UniProt Q9JIR4 596-704, ^15N-labeled (for the HSQC spectra)).
T1 sequence (looked up): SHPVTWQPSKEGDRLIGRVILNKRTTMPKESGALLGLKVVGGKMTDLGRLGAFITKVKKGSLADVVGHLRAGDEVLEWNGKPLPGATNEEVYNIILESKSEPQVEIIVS
In words: ITC.

What is called Kd is the free concentration of one partner at which half of the binding sites on the other are occupied at equilibrium, for simple one-to-one binding. Broadly, the stoichiometry N is a count of units in the complex or per binding partner.

On to “C-terminus of N-type Ca^2+-channels (tested by HSQC and calorimetry) (from UniProt Q00975 1-2339) (domain or fragment)”, for which, in experiment [1], the Kd was 23.4 µM and the stoichiometry N worked out at 0.93.
As to RHDAYSESEDDWC [peptide from the C-terminus of the P/Q-type Ca^2+-channel (residues RHDAYSESEDDWC)], in experiment [2], the Kd is 10.3 ± 0.6 µM and the “stoichiometry N” value amounted to 0.93.

Values taken from paper PMC3063406 (Cell, 2011).
